One block for each binder: values may come before it.
Molecular target: T1, Aquifex aeolicus GatCAB B-subunit (GatB) (Aquifex aeolicus, UniProt O66766 1-478)
T1 sequence (looked up): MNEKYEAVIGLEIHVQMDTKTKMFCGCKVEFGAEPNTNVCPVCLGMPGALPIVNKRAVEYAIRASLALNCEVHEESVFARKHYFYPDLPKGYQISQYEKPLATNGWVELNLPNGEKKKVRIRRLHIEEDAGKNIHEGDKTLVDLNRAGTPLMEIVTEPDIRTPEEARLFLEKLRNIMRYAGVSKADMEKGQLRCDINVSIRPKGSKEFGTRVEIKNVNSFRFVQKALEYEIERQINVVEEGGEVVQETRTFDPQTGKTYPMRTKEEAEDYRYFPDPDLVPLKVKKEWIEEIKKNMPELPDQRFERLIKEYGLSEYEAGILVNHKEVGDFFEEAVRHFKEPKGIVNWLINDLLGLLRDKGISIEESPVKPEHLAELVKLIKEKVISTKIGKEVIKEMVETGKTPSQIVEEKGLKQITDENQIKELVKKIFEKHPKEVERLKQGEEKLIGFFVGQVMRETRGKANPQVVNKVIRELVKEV
Assay: crystal structure

binding result: binds
B1: Aquifex aeolicus GatCAB C-subunit (GatC) (natural protein, UniProt O67904 1-94, looked up)
chain: MVDREWVLKIAKLARLELKEEEIEVFQKQLSDILDFIDQLKELDTENVEPYIQEFEETPMREDEPHPSLDREKALMNAPERKDGFFVVPRVVEV

binding result: binds
B2: Aquifex aeolicus GatCAB A-subunit (GatA) (enzyme, UniProt O66610 1-478, looked up)
chain: MLWKKSLSELRELLKRGEVSPKEVVESFYDRYNQTEEKVKAYITPLYGKALKQAESLKERELPLFGIPIAVKDNILVEGEKTTCASKILENFVAPYDATVIERLKKAGALIVGKTNLDEFAMGSSTEYSAFFPTKNPWDLERVPGGSSGGSAASVAVLSAPVSLGSDTGGSIRQPASFCGVIGIKPTYGRVSRYGLVAFASSLDQIGVFGRRTEDVALVLEVISGWDEKDSTSAKVPVPEWSEEVKKEVKGLKIGLPKEFFEYELQPQVKEAFENFIKELEKEGFEIKEVSLPHVKYSIPTYYIIAPSEASSNLARYDGVRYGYRAKEYKDIFEMYARTRDEGFGPEVKRRIMLGTFALSAGYYDAYYLKAQKVRRLITNDFLKAFEEVDVIASPTTPTLPFKFGERLENPIEMYLSDILTVPANLAGLPAISIPIAWKDGLPVGGQLIGKHWDETTLLQISYLWEQKFKHYEKIPLT
modifications: acyl-enzyme intermediate at Ser171 formed with Asn or Gln in the co-crystals

Source: article PMC2830067 (Journal of molecular biology, 2009)
